Results taken from patent US20030138894A1 (Human Genome Sciences, published 2003).
No end group written: not given here.

B1: ACE-2 binding polypeptide HSECRWEWFGRTMICMSF (peptide)
peptide: HSECRWEWFGRTMICMSF
modifications: not fully specified (bridges); cysteine pairing not given here
B2: ACE-2 binding polypeptide YEYCFEWEQCWEK (peptide)
peptide: YEYCFEWEQCWEK
modifications: not fully specified (bridges); cysteine pairing not given here
B3: ACE-2 binding polypeptide FNPCRLQSRDSACRFR (peptide)
peptide: FNPCRLQSRDSACRFR
modifications: not fully specified (bridges); cysteine pairing not given here
B4: ACE-2 binding polypeptide PFECDWGPWTLEMLCGPP (peptide)
peptide: PFECDWGPWTLEMLCGPP
modifications: not fully specified (N-terminus, C-terminus, bridges); cysteine pairing not given here
B5: ACE-2 binding polypeptide SGECNWQQFSGWEICLRD (peptide)
peptide: SGECNWQQFSGWEICLRD
modifications: not fully specified (bridges); cysteine pairing not given here
B6: ACE-2 binding polypeptide RIGCRDSRCNWWAPG (peptide)
peptide: RIGCRDSRCNWWAPG
modifications: not fully specified (N-terminus, C-terminus, bridges); cysteine pairing not given here
B7: ACE-2 binding polypeptide SPTCRALFCVDF (peptide)
peptide: SPTCRALFCVDF
modifications: not fully specified (N-terminus, C-terminus, bridges); cysteine pairing not given here
B8: ACE-2 binding polypeptide HLRCMTSDCIHF (peptide)
peptide: HLRCMTSDCIHF
modifications: not fully specified (bridges); cysteine pairing not given here
B9: ACE-2 binding polypeptide HFSCRLPSLDSRCQLW (peptide)
peptide: HFSCRLPSLDSRCQLW
modifications: not fully specified (bridges); cysteine pairing not given here
B10: ACE-2 binding polypeptide HYNCHTNDCVVL (peptide)
peptide: HYNCHTNDCVVL
modifications: not fully specified (bridges); cysteine pairing not given here
B11: ACE-2 binding polypeptide FLFCRLASRDSRCASP (peptide)
peptide: FLFCRLASRDSRCASP
modifications: not fully specified (bridges); cysteine pairing not given here
B12: ACE-2 binding polypeptide FEICFDWEVCHEQ (peptide)
peptide: FEICFDWEVCHEQ
modifications: not fully specified (bridges); cysteine pairing not given here
B13: ACE-2 binding polypeptide AYLCDWILFDSFEMCLAP (peptide)
peptide: AYLCDWILFDSFEMCLAP
modifications: not fully specified (bridges); cysteine pairing not given here
B14: ACE-2 binding polypeptide RGHCRDSRCMMNAPG (peptide)
peptide: RGHCRDSRCMMNAPG
modifications: not fully specified (bridges); cysteine pairing not given here
B15: ACE-2 binding polypeptide IGFCFEWEVCYEG (peptide)
peptide: IGFCFEWEVCYEG
modifications: not fully specified (bridges); cysteine pairing not given here
B16: ACE-2 binding polypeptide MDFCFDWEECWTN (peptide)
peptide: MDFCFDWEECWTN
modifications: not fully specified (bridges); cysteine pairing not given here
B17: ACE-2 binding polypeptide WPTCLTMDCVYN (peptide)
peptide: WPTCLTMDCVYN
modifications: not fully specified (N-terminus, C-terminus, bridges); cysteine pairing not given here
B18: ACE-2 binding polypeptide VGFCFDWEPCDEL (peptide)
peptide: VGFCFDWEPCDEL
modifications: not fully specified (bridges); cysteine pairing not given here
B19: ACE-2 binding polypeptide GIFCFEWETCYQA (peptide)
peptide: GIFCFEWETCYQA
modifications: not fully specified (bridges); cysteine pairing not given here
B20: ACE-2 binding polypeptide SIYCFDWEDCWDE (peptide)
peptide: SIYCFDWEDCWDE
modifications: not fully specified (bridges); cysteine pairing not given here
B21: ACE-2 binding polypeptide YAMCFDWDECFLG (peptide)
peptide: YAMCFDWDECFLG
modifications: not fully specified (bridges); cysteine pairing not given here
B22: ACE-2 binding polypeptide NDVCLNDDCVYG (peptide)
peptide: NDVCLNDDCVYG
modifications: not fully specified (bridges); cysteine pairing not given here
B23: ACE-2 binding polypeptide WVLCFEWEDCDEK (peptide)
peptide: WVLCFEWEDCDEK
modifications: not fully specified (N-terminus, C-terminus, bridges); cysteine pairing not given here
B24: ACE-2 binding polypeptide RGWCLDSRCKVF (peptide)
peptide: RGWCLDSRCKVF
modifications: not fully specified (bridges); cysteine pairing not given here
B25: ACE-2 binding polypeptide NIFCFDWEPCHFG (peptide)
peptide: NIFCFDWEPCHFG
modifications: not fully specified (bridges); cysteine pairing not given here
B26: ACE-2 binding polypeptide YDWCFDWEQCWDQ (peptide)
peptide: YDWCFDWEQCWDQ
modifications: not fully specified (bridges); cysteine pairing not given here
B27: ACE-2 binding polypeptide SENCQALFCVDF (peptide)
peptide: SENCQALFCVDF
modifications: not fully specified (bridges); cysteine pairing not given here
B28: ACE-2 binding polypeptide FFPCRALEKDSRCSFF (peptide)
peptide: FFPCRALEKDSRCSFF
modifications: not fully specified (bridges); cysteine pairing not given here
B29: ACE-2 binding polypeptide DYLCFDWEACWLS (peptide)
peptide: DYLCFDWEACWLS
modifications: not fully specified (bridges); cysteine pairing not given here
B30: ACE-2 binding polypeptide RGFCRDSSCSFP (peptide)
peptide: RGFCRDSSCSFP
modifications: not fully specified (N-terminus, C-terminus, bridges); cysteine pairing not given here

The binders below were run against T1, FLAG-tagged ACE-2 target (human, UniProt Q9BYF1 18-740) (assay: phage ELISA on FLAG-ACE-2).
T1 construct: range 1-740; obtained from Human Genome Sciences, Inc; also called FLAG-ACE-2; tagged human ACE-2; not shown: FLAG tag
T1 sequence (Q9BYF1 18-740 limits assumed): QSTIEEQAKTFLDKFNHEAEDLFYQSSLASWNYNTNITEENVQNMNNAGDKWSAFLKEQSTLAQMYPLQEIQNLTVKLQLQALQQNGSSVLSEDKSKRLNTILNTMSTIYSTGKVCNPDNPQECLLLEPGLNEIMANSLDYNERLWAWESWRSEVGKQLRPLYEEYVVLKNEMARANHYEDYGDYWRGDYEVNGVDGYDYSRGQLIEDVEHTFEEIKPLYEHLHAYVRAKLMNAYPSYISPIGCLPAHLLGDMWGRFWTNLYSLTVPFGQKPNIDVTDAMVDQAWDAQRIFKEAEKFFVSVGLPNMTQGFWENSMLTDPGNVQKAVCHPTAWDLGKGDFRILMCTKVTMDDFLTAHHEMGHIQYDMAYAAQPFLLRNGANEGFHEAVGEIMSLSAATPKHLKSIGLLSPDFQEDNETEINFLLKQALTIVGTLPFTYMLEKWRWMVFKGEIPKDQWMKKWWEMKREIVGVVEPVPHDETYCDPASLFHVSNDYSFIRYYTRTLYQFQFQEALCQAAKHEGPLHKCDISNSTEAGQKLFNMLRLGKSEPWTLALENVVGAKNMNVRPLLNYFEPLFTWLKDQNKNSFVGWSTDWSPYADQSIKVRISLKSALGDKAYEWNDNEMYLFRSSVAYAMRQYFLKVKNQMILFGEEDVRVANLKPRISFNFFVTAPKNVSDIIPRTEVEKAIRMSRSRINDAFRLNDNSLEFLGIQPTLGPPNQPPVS
Procedure: Phage enriched from the third round of selection were screened by ELISA for strong ACE-2 binders. Immulon 2 96-well plates (Dynatech) were coated with streptavidin for 1 hour at 37° C. and subsequently coated with anti-FLAG antibody for 1 hour at room temperature. Half of the plates were further coated with FLAG-ACE-2 as the target plates, and the other half of the plates were coated with FLAG peptide as background plates. The amount of each protein or peptide coated was 100 ng per well. The coated plates were then incubated for 1 hour at room temperature with 1:2 diluted overnight phage cultures that were made by inoculating phage from individual plaques into bacterial host cells. After being washed 7 times with PBST, the plates were incubated with HRP-conjugated anti-M13 antibody (Pharmacia) for 1 hour at room temperature, washed 5 times, developed with TMB peroxidase substrate solution (Kirkegaad & Perry Laboratories, Gaithersburg, Md.), and read at 630 nm on an ELISA plate reader.
B1: binds. B2: binds. B3: binds. B4: binds. B5: binds. B6: binds. B7: binds. B8: binds. B9: binds. B10: binds. B11: binds. B12: binds. B13: binds. B14: binds. B15: binds. B16: binds. B17: binds. B18: binds. B19: binds. B20: binds. B21: binds. B22: binds. B23: binds. B24: binds. B25: binds. B26: binds. B27: binds. B28: binds. B29: binds. B30: binds.
